The values below come from article PMC7376557.

This assay addresses SasC aggregation domain (S. aureus surface protein C), His-tagged (S. aureus strain N315). As to the kind of experiment: SEC-MALS; FPLC-MALS (Wyatt Technology) of the purified His-tagged SasC aggregation domain; superpolymer of about 1,610 kDa against 41.5 kDa for the domain.

Some results are limits rather than exact numbers.

For the substance “SasC aggregation domain (S. aureus surface protein C), His-tagged (domain or fragment)”, the stoichiometry N was more than 35.
